Among the data in the supplement of paper PMC10567573 are protein stability index values, retold here.

The labels stand for the following.
B1: MED27 (parent)
chain: YNENVYTEDGKLDIWSKSNYQVFQ
B2: FAM98B (parent)
chain: QLDKNSEVYQEVQAMFDTLGIPKS
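Also: lentivirally expressed fusions sorted by FACS into six bins by GFP to DsRed ratio, PSI derived from sequencing read proportions per bin multiplied by bin number.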

The variants in one series derive from B1. Put plainly: protein stability index of a GFP-peptide fusion (GPS, HEK-293T) (PSI 1-6); higher = more stable. Conditions: c terminus: a fixed tail appended.
Regarding YNENVYTEDGKLDIWSKSNYQVQQ [F23Q], the protein stability index came to 3.29. As to YNENVYTEDGKLDIWSKSNYQVDQ [F23D], the protein stability index stood at 3.26. Consider YNENVYTEDGKLDIWSKSNYQVCQ [F23C], for which the protein stability index came to 2.06.

For the variant YNENVYTEDGKLDIWSKSNYQVNQ [F23N], the protein stability index was 2.93. Same read-out and setting: under YNENVYTEDGKLDIWSKSNYQVTQ [F23T] stands 3; under YNENVYTEDGKLDIWSKSNYQVPQ [F23P], 2.99; under YNENVYTEDGKLDIWSKSNYQVWQ [F23W], 2.16. Take YNENVYTEDGKLDIWSKSNYQVGQ [F23G]: the protein stability index was determined as 2.88. On the same count and under the same terms, to YNENVYTEDGKLDIWSKSNYQVMQ [F23M] belongs 2.28; to YNENVYTEDGKLDIWSKSNYQVSQ [F23S], 1.4; to YNENVYTEDGKLDIWSKSNYQVVQ [F23V], 2.38. The same measure, in the same setting: under YNENVYTEDGKLDIWSKSNYQVHQ [F23H] stands 2.87; under YNENVYTEDGKLDIWSKSNYQVKQ [F23K], 3.22; under YNENVYTEDGKLDIWSKSNYQVLQ [F23L], 2.41. Still for that read-out and setting: to YNENVYTEDGKLDIWSKSNYQVIQ [F23I] belongs 2.43; to YNENVYTEDGKLDIWSKSNYQVAQ [F23A], 2.5; to YNENVYTEDGKLDIWSKSNYQVEQ [F23E], 3.02.

For the variant YNENVYTEDGKLDIWSKSNYQVYQ [F23Y], the protein stability index came out at 2.31.

For YNENVYTEDGKLDIWSKSNYQVFY [Q24Y], the protein stability index stood at 2.01.

For the variant YNENVYTEDGKLDIWSKSNYQVFL [Q24L], the protein stability index was determined as 1.96. Still for that read-out and setting: under YNENVYTEDGKLDIWSKSNYQVFK [Q24K] stands 2.58; under YNENVYTEDGKLDIWSKSNYQVFP [Q24P], 1.81. Same read-out and setting: to YNENVYTEDGKLDIWSKSNYQVFV [Q24V] belongs 1.43. Same read-out and setting: under YNENVYTEDGKLDIWSKSNYQVFF [Q24F] stands 1.74; under YNENVYTEDGKLDIWSKSNYQVFT [Q24T], 2.23; under YNENVYTEDGKLDIWSKSNYQVFG [Q24G], 2.21. As for YNENVYTEDGKLDIWSKSNYQVFI [Q24I], the protein stability index worked out at 1.6. On the same count and under the same terms, to YNENVYTEDGKLDIWSKSNYQVFM [Q24M] belongs 1.62. On the same count and under the same terms, under YNENVYTEDGKLDIWSKSNYQVFD [Q24D] stands 2.75; under YNENVYTEDGKLDIWSKSNYQVFA [Q24A], 1.94; under YNENVYTEDGKLDIWSKSNYQVFS [Q24S], 1.37. Consider YNENVYTEDGKLDIWSKSNYQVFH [Q24H], for which the protein stability index was found to be 2.17. The same measure, in the same setting: under YNENVYTEDGKLDIWSKSNYQVFN [Q24N] stands 2.46; under YNENVYTEDGKLDIWSKSNYQVFR [Q24R], 1.86. With YNENVYTEDGKLDIWSKSNYQVFE [Q24E], the protein stability index is 2.44. On the same count and under the same terms, to YNENVYTEDGKLDIWSKSNYQVFW [Q24W] belongs 2.21; to YNENVYTEDGKLDIWSKSNYQVFC [Q24C], 2.3; to YNENVYTEDGKLDIWSKSNYQWFQ [V22W], 1.76. The same measure, in the same setting: to YNENVYTEDGKLDIWSKSNYQSFQ [V22S] belongs 2.5. YNENVYTEDGKLDIWSKSNYQYFQ [V22Y]: the protein stability index was found to be 2.42. Still for that read-out and setting: to YNENVYTEDGKLDIWSKSNYQTFQ [V22T] belongs 2.45.

The variants in a further series derive from B2. Described as above. Conditions: c terminus: a fixed tail appended.
Regarding QLDKNSCVYQEVQAMFDTLGIPKS [E7C], the protein stability index was found to be 2.62.

On to QLDKNSHVYQEVQAMFDTLGIPKS [E7H], for which the protein stability index came to 2.51.

For QLDKNSMVYQEVQAMFDTLGIPKS [E7M], the protein stability index worked out at 3.01.

For the variant QLDKNSAVYQEVQAMFDTLGIPKS [E7A], the protein stability index turned out to be 3.44. Same read-out and setting: to QLDKNSWVYQEVQAMFDTLGIPKS [E7W] belongs 2.13; to QLDKNSTVYQEVQAMFDTLGIPKS [E7T], 2.83. On the same count and under the same terms, under QLDKNSNVYQEVQAMFDTLGIPKS [E7N] stands 3.2; under QLDKNSLVYQEVQAMFDTLGIPKS [E7L], 3.05; under QLDKNSQVYQEVQAMFDTLGIPKS [E7Q], 2.81.

Regarding QLDKNSGVYQEVQAMFDTLGIPKS [E7G], the protein stability index stood at 2.97. On the same count and under the same terms, to QLDKNSSVYQEVQAMFDTLGIPKS [E7S] belongs 2.77; to QLDKNSIVYQEVQAMFDTLGIPKS [E7I], 1.99.

Consider QLDKNSFVYQEVQAMFDTLGIPKS [E7F], for which the protein stability index amounted to 2.39.

As to QLDKNSVVYQEVQAMFDTLGIPKS [E7V], the protein stability index was found to be 2.58.

Regarding QLDKNSDVYQEVQAMFDTLGIPKS [E7D], the protein stability index was 3.86. On to QLDKNSRVYQEVQAMFDTLGIPKS [E7R], for which the protein stability index amounted to 2.87. The same measure, in the same setting: under QLDKNSKVYQEVQAMFDTLGIPKS [E7K] stands 3.06; under QLDKNSYVYQEVQAMFDTLGIPKS [E7Y], 2.26. The same measure, in the same setting: under QLDKNSPVYQEVQAMFDTLGIPKS [E7P] stands 2.58; under TLDKNSEVYQEVQAMFDTLGIPKS [Q1T], 3.18. With LLDKNSEVYQEVQAMFDTLGIPKS [Q1L], the protein stability index turned out to be 2.55. For ALDKNSEVYQEVQAMFDTLGIPKS [Q1A], the protein stability index worked out at 2.91. In the case of RLDKNSEVYQEVQAMFDTLGIPKS [Q1R], the protein stability index amounted to 3.39. Still for that read-out and setting: to CLDKNSEVYQEVQAMFDTLGIPKS [Q1C] belongs 2.52; to HLDKNSEVYQEVQAMFDTLGIPKS [Q1H], 3.64; to PLDKNSEVYQEVQAMFDTLGIPKS [Q1P], 3.53. As for GLDKNSEVYQEVQAMFDTLGIPKS [Q1G], the protein stability index is 3.31. The same measure, in the same setting: to WLDKNSEVYQEVQAMFDTLGIPKS [Q1W] belongs 2.88; to ELDKNSEVYQEVQAMFDTLGIPKS [Q1E], 2.9. On the same count and under the same terms, under SLDKNSEVYQEVQAMFDTLGIPKS [Q1S] stands 2.96.

ILDKNSEVYQEVQAMFDTLGIPKS [Q1I]: the protein stability index was determined as 3.23. Still for that read-out and setting: to DLDKNSEVYQEVQAMFDTLGIPKS [Q1D] belongs 4.18. For the variant FLDKNSEVYQEVQAMFDTLGIPKS [Q1F], the protein stability index turned out to be 2.2. On to YLDKNSEVYQEVQAMFDTLGIPKS [Q1Y], for which the protein stability index was 2.62. For NLDKNSEVYQEVQAMFDTLGIPKS [Q1N], the protein stability index was found to be 3.39. In the case of KLDKNSEVYQEVQAMFDTLGIPKS [Q1K], the protein stability index was found to be 3.2. Take VLDKNSEVYQEVQAMFDTLGIPKS [Q1V]: the protein stability index was 2.7. Consider MLDKNSEVYQEVQAMFDTLGIPKS [Q1M], for which the protein stability index came out at 2.79. QLDMNSEVYQEVQAMFDTLGIPKS [K4M]: the protein stability index is 2.85. The same measure, in the same setting: under QLDRNSEVYQEVQAMFDTLGIPKS [K4R] stands 2.95; under QLDLNSEVYQEVQAMFDTLGIPKS [K4L], 3.39. Turning to QLDWNSEVYQEVQAMFDTLGIPKS [K4W], the protein stability index was 3.04. Still for that read-out and setting: to QLDGNSEVYQEVQAMFDTLGIPKS [K4G] belongs 3.5; to QLDINSEVYQEVQAMFDTLGIPKS [K4I], 2.56. Same read-out and setting: under QLDVNSEVYQEVQAMFDTLGIPKS [K4V] stands 2.2; under QLDANSEVYQEVQAMFDTLGIPKS [K4A], 3.04; under QLDYNSEVYQEVQAMFDTLGIPKS [K4Y], 3.39. Same read-out and setting: to QLDFNSEVYQEVQAMFDTLGIPKS [K4F] belongs 2.93; to QLDHNSEVYQEVQAMFDTLGIPKS [K4H], 3.43; to QLDNNSEVYQEVQAMFDTLGIPKS [K4N], 3.67.

With QLDCNSEVYQEVQAMFDTLGIPKS [K4C], the protein stability index turned out to be 3. As for QLDPNSEVYQEVQAMFDTLGIPKS [K4P], the protein stability index was determined as 3. With QLDTNSEVYQEVQAMFDTLGIPKS [K4T], the protein stability index is 3.08.
